Measured values published in paper PMC5760697, “Loss of the Mitochondrial Fatty Acid β-Oxidation Protein Medium-Chain Acyl-Coenzyme A Dehydrogenase Disrupts Oxidative Phosphorylation Protein Complex Stability and Function” (Scientific Reports, 2018).
One block for each molecule: values may come before it.

What was measured:
[1] = molecular target: OXPHOS complex III dimer (human (endogenous in fibroblasts, 143B and HepG2)) (UniProt P00156); assay: native gel or EMSA; mtDNA-encoded proteins radiolabeled with [35S]-methionine/cysteine in 143B cells in the presence of cycloheximide, 2 h pulse, chase 0, 3 or 24 h; mitochondria isolated, BN-PAGE or 2D native-PAGE
[2] = molecular target: OXPHOS complex III dimer (human (endogenous in fibroblasts, 143B and HepG2)) (UniProt P00156); assay: native gel or EMSA; BN-PAGE and Western blot of isolated mitochondria (fibroblasts, 143B cells) solubilised in 1% (v/v) Triton X-100; anti-UQCRC1 antibody
[3] = molecular target: the molecule itself; assay: native gel or EMSA; BN-PAGE and Western blot of isolated mitochondria (fibroblasts, 143B cells) solubilised in 1% (w/v) digitonin; anti-MCAD or anti-NDUFA9 antibody
[4] = molecular target: the molecule itself; assay: native gel or EMSA; 35S-labelled in vitro translated protein incubated at 37 °C with freshly isolated 143B mitochondria (5 to 60 min), mitochondria solubilised in 1% (v/v) TX-100 or 1% (w/v) digitonin, BN-PAGE

stoichiometry N [2]: 2
Molecule: OXPHOS complex III dimer (from UniProt P00156 1-380; P31930 35-480; P22695 15-453)
stoichiometry N [1]: 2

B1: Medium-chain acyl-Coenzyme A dehydrogenase (enzyme, human (endogenous in 143B and HepG2), UniProt P11310 26-421, looked up)
chain: KANRQREPGLGFSFEFTEQQKEFQATARKFAREEIIPVAAEYDKTGEYPVPLIRRAWELGLMNTHIPENCGGLGLGTFDACLISEELAYGCTGVQTAIEGNSLGQMPIIIAGNDQQKKKYLGRMTEEPLMCAYCVTEPGAGSDVAGIKTKAEKKGDEYIINGQKMWITNGGKANWYFLLARSDPDPKAPANKAFTGFIVEADTPGIQIGRKELNMGQRCSDTRGIVFEDVKVPKENVLIGDGAGFKVAMGAFDKTRPVVAAGAVGLAQRALDEATKYALERKTFGKLLVEHQAISFMLAEMAMKVELARMSYQRAAWEVDSGRRNTYYASIAKAFAGDIANQLATDAVQILGGNGFNTEYPVEKLMRDAKIYQIYEGTSQIQRLIVAREHIDKYKN
notes: Medium-chain acyl-CoA dehydrogenase (MCAD, EC 1.3.8.7); 421 amino acid precursor, processed in the mitochondrial matrix into a mature 396 amino acid (43.6 kDa) protein; also called MCAD; Medium-chain acyl-CoA dehydrogenase; source: endogenous, mitochondria isolated from 143B cells or HepG2 cells, solubilised in detergent
stoichiometry N [3]: 4

B2: Medium-chain acyl-Coenzyme A dehydrogenase (enzyme, UniProt P11310 26-421, looked up)
chain: KANRQREPGLGFSFEFTEQQKEFQATARKFAREEIIPVAAEYDKTGEYPVPLIRRAWELGLMNTHIPENCGGLGLGTFDACLISEELAYGCTGVQTAIEGNSLGQMPIIIAGNDQQKKKYLGRMTEEPLMCAYCVTEPGAGSDVAGIKTKAEKKGDEYIINGQKMWITNGGKANWYFLLARSDPDPKAPANKAFTGFIVEADTPGIQIGRKELNMGQRCSDTRGIVFEDVKVPKENVLIGDGAGFKVAMGAFDKTRPVVAAGAVGLAQRALDEATKYALERKTFGKLLVEHQAISFMLAEMAMKVELARMSYQRAAWEVDSGRRNTYYASIAKAFAGDIANQLATDAVQILGGNGFNTEYPVEKLMRDAKIYQIYEGTSQIQRLIVAREHIDKYKN
modifications: [35S]-methionine/cysteine
notes: MCAD cDNA translated as the precursor; after import a proteinase K resistant mature form is seen; 421 amino acid precursor, mature 396 amino acids; Imported into mitochondria that hold endogenous MCAD, so the labelled ~175 kDa tetramer may be mixed with endogenous chains; also called MCAD; radiolabeled MCAD; source: in vitro translated (pGEM4Z, TnT Coupled Reticulocyte Lysate System), imported …
stoichiometry N [4]: 4
